B1: Hairpin Ribozyme (parent)
chain: GUCCUCUUUCACGUGCGCGUGAAAGAGAGAAGUGAACCAGAGAAACACACGUUGUGGUAUAUUACCUGGUA

Variants of: B1
Test: self-cleavage, relative activity (ratio to wild type); higher = more cleavage; co-transcriptional
With GUCCUCUUUCACGUGCGAGUGAAAGAGAGAAGUGAACCAGAGAAACACACGUUGUGGUAUAUUACCUGGUU the self-cleavage was 0.831. GUCCUCUUUCACGUGCGAGUGAAAGAGAGAAGUGAAACAGAGAAACACACGUUGUGGUAUAUUACCUGGUA gave a self-cleavage of 0.315. For GUCCUCUUUCACGUGCGAGUGAAAGAGAGAAGUGAACCAGAGAAACAUACGUUGUGGUAUAUUACCUGGUA, the self-cleavage was 0.214. With GUCCUCUUUCACGUGCGAGUGAAAGAGAGAAGUGAACCAGAGAAACACACGUUGUGGUAUAUUAUCUGGUA the self-cleavage was 0.254. In the case of GUCCUCUUUCACGUGCGACUGAAAGAGAGAAGUGAACCAGAGAAACACACGUUGUGGUAUAUUACCUGGUA, the self-cleavage is reported as 0.802. GUCCUCUUUCACGUGCGAGUGAAACAGAGAAGUGAACCAGAGAAACACACGUUGUGGUAUAUUACCUGGUA showed a self-cleavage of 0.58. With GUCCUCUUUCACGUGCGAGUGAAAUAGAGAAGUGAACCAGAGAAACACACGUUGUGGUAUAUUACCUGGUA the self-cleavage was 0.761. GUCCUCUUUCACGUGCGAGUGAAAGAAAGAAGUGAACCAGAGAAACACACGUUGUGGUAUAUUACCUGGUA showed a self-cleavage of 0.534. GUCCUCUUUCACGUGCGAGUGAAAGACAGAAGUGAACCAGAGAAACACACGUUGUGGUAUAUUACCUGGUA gave a self-cleavage of 0.165. With GUCCUCUUUCACGUGCGAGUGAAAGAGAAAAGUGAACCAGAGAAACACACGUUGUGGUAUAUUACCUGGUA the self-cleavage was 0.149. For GUCCUCUUUCACGUGCGAGUGAAAGAGACAAGUGAACCAGAGAAACACACGUUGUGGUAUAUUACCUGGUA, the self-cleavage was 0.118. Variant GUCCUCUUUCACGUGCGAGUGAAAGAGAGAACUGAACCAGAGAAACACACGUUGUGGUAUAUUACCUGGUA has a self-cleavage of 0.0795. GUCCUCUUUCACGUGCGAGUGAAAGAGAGAAGUUAACCAGAGAAACACACGUUGUGGUAUAUUACCUGGUA showed a self-cleavage of 1.46. GUCCUCUUUCACGUGCGAGUGAAAGAGAGAAGUGAACCAAAGAAACACACGUUGUGGUAUAUUACCUGGUA gave a self-cleavage of 0.305. GUCCUCUUUCACGUGCGAGUGAAAGAGAGAAGUGAACCAUAGAAACACACGUUGUGGUAUAUUACCUGGUA showed a self-cleavage of 0.174. With GUCCUCUUUCACGUGCGAGUGAAAGAGAGAAGUGAACCAGAAAAACACACGUUGUGGUAUAUUACCUGGUA the self-cleavage was 0.203. With GUCCUCUUUCACGUGCGAGUGAAAGAGAGAAGUGAACCAGAGAAACACACGUUAUGGUAUAUUACCUGGUA the self-cleavage was 0.591. Variant GUCCUCUUUCACGUGCGAGUGAAAGAGAGAAGUGAACCAGAGAAACACACGUUGUGAUAUAUUACCUGGUA has a self-cleavage of 0.209. GUCCUCUUUCACGUGCGAGUGAAAGAGAGAAGUGAACCAGAGAAACACACGUUGUGCUAUAUUACCUGGUA gave a self-cleavage of 0.187. GUCCUCUUUCACGUGCGAGUGAAAGAGAGAAGUGAACCAGAGAAACACACGUUGUGGUAUAUUACCUCGUA gave a self-cleavage of 0.18. For GUCCUCUUUCACGUGCGAGUGAAAGAGAGAAGUGAACCAGAGAAACACACGCUGUGGUAUAUUACCUGGUA, the self-cleavage was 1.05. For GUCCUCUUUCACGUGCGAGUGAAAGAGAGAAGUGAACCAGAGAAACACACGUCGUGGUAUAUUACCUGGUA, the self-cleavage was 1.01. Variant GUCCUCUUUCACGUGCGAGUGAAAGAGAGAAGUGAACCAGAGAAACACACGUUGUGGCAUAUUACCUGGUA has a self-cleavage of 1.07. In the case of GUCCUCUUUCACGUGCGAGUGAAAGAGAGAAGUGAACCAGAGAAACACACGUUGUGGUACAUUACCUGGUA, the self-cleavage is reported as 1.1. With GUCCUCUUUCACGUGCGAGUGAAAGAGAGAAGUGAACCAGAGAAACACACGUUGUGGUAUAUCACCUGGUA the self-cleavage was 0.0808. Work on GUCCUCUUUCACGUGCGAGUGAAAGAGAGAAGUGAACCAGAGAAACACACGUUGUGGUAUAUUACCCGGUA yielded a self-cleavage of 0.274. For GUCCUCUUUCACGUGCGAGUGAAAGAGAGAAGUGAACCAGAGAAACACACGUUGUGGUAUAUUACCUGGGA, the self-cleavage was 0.862. GUCCUCUUUCACGUGCGGGUGAAAGAGAGAAGUGAACCAGAGAAACACACGUUGUGGUAUAUUACCUGGUA gave a self-cleavage of 0.931. GUCCUCUUUCACGUGCGGGUGUAAGAGAGAAGUGAACCAGAGAAACACACGUUGUGGUAUAUUACCUGGUA showed a self-cleavage of 0.801. Variant GUCCUCUUUCACGUGCGGGUGAAUGAGAGAAGUGAACCAGAGAAACACACGUUGUGGUAUAUUACCUGGUA has a self-cleavage of 0.729. Work on GUCCUCUUUCACGUGCGGGUGAAAGCGAGAAGUGAACCAGAGAAACACACGUUGUGGUAUAUUACCUGGUA yielded a self-cleavage of 0.489. Work on GUCCUCUUUCACGUGCGGGUGAAAGAGAGGAGUGAACCAGAGAAACACACGUUGUGGUAUAUUACCUGGUA yielded a self-cleavage of 0.131. In the case of GUCCUCUUUCACGUGCGGGUGAAAGAGAGACGUGAACCAGAGAAACACACGUUGUGGUAUAUUACCUGGUA, the self-cleavage is reported as 0.0659. Work on GUCCUCUUUCACGUGCGGGUGAAAGAGAGAAGUGGACCAGAGAAACACACGUUGUGGUAUAUUACCUGGUA yielded a self-cleavage of 1.24. GUCCUCUUUCACGUGCGGGUGAAAGAGAGAAGUGAGCCAGAGAAACACACGUUGUGGUAUAUUACCUGGUA showed a self-cleavage of 0.68. Variant GUCCUCUUUCACGUGCGGGUGAAAGAGAGAAGUGAACCAGCGAAACACACGUUGUGGUAUAUUACCUGGUA has a self-cleavage of 0.952. For GUCCUCUUUCACGUGCGGGUGAAAGAGAGAAGUGAACCAGAGAAGCACACGUUGUGGUAUAUUACCUGGUA, the self-cleavage was 0.0821. In the case of GUCCUCUUUCACGUGCGGGUGAAAGAGAGAAGUGAACCAGAGAAACCCACGUUGUGGUAUAUUACCUGGUA, the self-cleavage is reported as 0.242.

From the RNAGym collection of RNA variant scans (doi:10.7554/elife.80360)
